1 molecule from paper doi:10.1101/2025.11.21.689678 (bioRxiv, 2025) can be followed below.

For the assay, the target named is MBP-MAGEA6 (human (cDNA from A549 cells), UniProt P43360 1-314). The assay is described as follows: pull-down.
MBP-MAGEA6, sequence (P43360 whole entry): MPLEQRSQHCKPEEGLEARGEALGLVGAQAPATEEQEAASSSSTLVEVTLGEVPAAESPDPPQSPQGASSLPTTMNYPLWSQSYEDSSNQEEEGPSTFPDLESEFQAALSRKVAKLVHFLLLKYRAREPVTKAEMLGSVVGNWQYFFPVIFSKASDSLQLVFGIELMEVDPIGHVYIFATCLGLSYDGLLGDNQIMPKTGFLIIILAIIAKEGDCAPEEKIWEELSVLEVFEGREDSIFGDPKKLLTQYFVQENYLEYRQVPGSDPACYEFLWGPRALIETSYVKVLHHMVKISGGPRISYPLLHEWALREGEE

B1: His-Flag-ALKBH2 (natural protein, human, UniProt Q6NS38 1-261, looked up)
chain: MDRFLVKGAQGGLLRKQEEQEPTGEEPAVLGGDKESTRKRPRREAPGNGGHSAGPSWRHIRAEGLDCSYTVLFGKAEADEIFQELEKEVEYFTGALARVQVFGKWHSVPRKQATYGDAGLTYTFSGLTLSPKPWIPVLERIRDHVSGVTGQTFNFVLINRYKDGCDHIGEHRDDERELAPGSPIASVSFGACRDFVFRHKDSRGKSPSRRVAVVRLPLAHGSLLMMNHPTNTHWYHSLPVRKKVLAPRVNLTFRKILLTKK
With B1, the binding result is reported as “binds”.
